Measurements: publication doi:10.1101/2022.01.04.474980

Target: FRQ WT peptide … (FFD and the double arginines) (N. crassa)
Test: peptide or protein array

normalized microarray intensity: 64
Substance: FREQUENCY-Interacting RNA Helicase, FRHΔ100 (E. coli expressed, 6x His-tag) (from UniProt Q1K502 100-1106) (domain or fragment)
